According to paper PMC11992174, “Structural Insights into Bortezomib-Induced Activation of the Caseinolytic Chaperone-Protease System in Mycobacterium tuberculosis” (Nature Communications, 2025):

Target: the molecule itself
Test: cryo-EM structure

B1: MtbClpX^E187Q (enzyme)
chain: not shown
notes: also called Walker B motif mutant MtbClpX
B1 was tested, and the “stoichiometry N” value was 6.
